Assay results from patent publication US10801046B2, “Methods and materials for biosynthesizing multifunctional, multivariate molecules via carbon chain modification” (INVISTA NORTH AMERICA S.A.R.L., priority 2016, dated 2020).

B1: SEQ ID NO: 200: Tetrahymena thermophila (strain SB210) carboxylate reductase (protein)
chain: MGANQSSRIYNVPIDEKKDGYSQIMRHPKYIDKLEYKPIPEIDNVQDLVLHGYSNSKEMNFFGKKNPVSNEFEYMTYDQVIEQAKQLGSAVKNLQFLKESSEQSNQKMELIGIYSKNRIEWGIADIANSLYGYTMVPLYDSLGPDSISYVLANSEITTCYCSAASVLTLSKTKDLHHLKNIISFDHVSEDLIELVKQRGIVVHLFKDIVEKGSLNVLPLPKLTRDTIFTFCYTSGTTGNPKSAMISHKNILASVTNYDKSDCFLTQDDVHLSYLPLPHIYERFINVYCWFKGTKIAFYSGDVHKIQEDIIASKPTCFSAVPRLLNRFYDAINSKLNQATGFQKILIQHALQTKLENIQKNGVYTHILYDKIIFNKIREQFGGRIRQLVCGSAPTSPKVFDFFKAVLSCSVIEGFGQTELSGVVTIQVKADPKMGNVGGIGPSSELKLEDVPEMEYLSTDKDELGNPKPRGEICVRGYNVFSGYYKDEEKTKEAIDQEGWFHTGDIGEIIPNGGLKIIDRKKNLFKLSQAEYVSPEKVENIYVRARGVQEVYIHGESLYNYCIGIIVPSQEELLKIAAELNISETDIASLCKNQQIISWYIKTIHNLGKHEGLFSFEQPKKIYLEPKSFLVIGCVTNSFKLQRHHAKNYFKNIIQELYNNNNNQ
modifications: Tetrahymena thermophila (strain SB210)
notes: Tetrahymena thermophila (strain SB210) carboxylate reductase
B2: SEQ ID NO: 199: Caenorhabditis elegans carboxylate reductase (protein)
chain: MVDESDVKSALNGHDRPFTITLAIVLLKIVFFIYDVVTFIPFKIFADPAEKLEKSERVKAEPDNGDPTTPWKNVSAKDGLMNSSFEGIHDLGTQWEECVRRYGNQPCMGTREVLKVHKEKQSNGKIFEKWQMGDYHWRSYAQVDKRVNMIASGLTSLGQQEKEPIILFAETREEWMTTALACMKMNFPIATMYATLGDEAVQFAINEVGAKTIFTSEALISKVKKAMSNGATSIENIIFFDSVDPASRGESVDVDLPFTLLSFDQLLSRGEPYPVPTRSKKDDLAFIMYTSGTTGNPKGVMISHQNIVAVTAGQAFNIVLGPDDRYIGYLPLAHILEVCAEMVVFTKGVRIGYSSAQTLFDRAPKIMKGEHGDCWVLQPTLMACVPAVMDRIFKAVIDEVNANSELFKQLFKTCYERKRSRYEEGYTSFILNKLVFNRIGKLLGGKVRQILSGGAPLSPETQRFMNICFCCPVVQGYGLTETCGGGTIADIHDLSTGTVGPPLTCCEILLQEWAEAGYSPKNDPPQGEILISGPNVALGYFKNDEKTKEEFVKVNGKTFFATGDIGEFREDGSLKIIDRKKDLLKLAHGEYISLGKVETNLLTNPNVDNVCVYGDSNKSFLVALVVPNQKNLTQLASKAGASNDNFEKLCEDKKVVEALQKELAQYGASKLQRVEIPQKIFICHEPWTPASGLLTEALKLKRKNIEKAFRKELDELYK
modifications: Caenorhabditis elegans
notes: Caenorhabditis elegans carboxylate reductase
B3: SEQ ID NO: 202: Lichtheimia corymbifera carboxylate reductase (protein)
chain: MVTLTMDKQTIEIPNDVPGESPILRRTPELMDSFVPGINNIYDLFYNGYKLSRDQPCLGERPILDRTTGERAKQFEWQTYEQVAARVDNFGSGLKHVLQQIGESRPKQIPIGIWSVNRPEWHIVDWACAAHSLYVVALYDTLGPDTVEYVVNHAEIQVVVCTKEHVTDLLKLRSKLPQLKAIISFDTLEKEQSQALHAWAEEKDLLLVEFANVEQHGKENPVPHNPAQRSDLACIMYTSGTTGKSKGVMLTQGNFVAAVSGAIYNVKSSPADVGISYLPLGHIYGRVADAFTVAGGASLGFFSGKVDNLLEDMQILKPTLFNTVPRLLNRIYTGIVQSTLQAPGMMKKSTMSLIWNCSLGITDVGPKGALFRKAIATKLENLEQGKGTQHPVYDRLLFDKVRQVLGGRVRFINTGAAPLGKEVMQLLRVTLLADIRESYGATESCASLTMQIEGDPKPGCIGIPAPCNEMKLIDVPEMNYLTTDKPYARGEICVRGYNVSLGYYKDEEKTKEAFDKDGFYHTGDIGMIDERGTFMVIDRKKNIFKLSQGEYIAPEKIENIYARDILVSQIFVYGDSVQSCLVAIVVPDPIELGKLAQEKLPKLTSLSYEELCNNPEVHIAVLERMMENGKRAEMRGFEFVKAIHLDSKPFTVENNLLTPSLKLKRPEARKFFQKEIEQLYQKLSNSSAGSAARL
modifications: Lichtheimia corymbifera JMRC:FSU:9682
notes: Lichtheimia corymbifera carboxylate reductase
B4: SEQ ID NO: 203: Labilithrix luteola carboxylate reductase (protein, listed as Labilithrix luteola)
chain: MDISRFLDLRIAPRAVFDALEERKTRARFMVPTAPGSNEWRPVTWGAFAQEIRELALFLSTVLSSGDRGAVYAPNRVEWASAALAIQAAGGVIVPIYPASTPDQLSYVASHSDAKVIFVDTAPLLTRLFATWNSTPGVEKIVVLDDGIDVARVYESAREKGIPVPSLDAVERKVLSIGKARGIGAARDQEDPQAFERTMAAISLDQAGMMLYTSGTSGNPKGVPLTHRNVAVNGLDWLKCNYPLLEEGDVDILWLPMSHIFGFGEMCLGNTLGWTSYLADPATCLGRLPEVTPNIFMSVPSHWEKLALMAMHEPTPQARLDKFKAATGGKLRFCLSGGAGLKREVKDFFYSCGVLIVEGYGLTETSPTLTLNRPDAFRFDTVGKTLPSVELRLADDGEILARGASVFGGYHKDPEATREAFTEDGWFKTGDVGRFTDDGFLQIIDRKKDILVTAGGKNVPPANIEIRFQDDPLFAHVVVYGDAKKYLVAGVWLNEEAMSSQLASVPKDQQESARRDLVQKRIDHVNASLASYETIKKFSIIGEPLTVEAGLLTPSLKMRRKKVYEHFHGIFEGMFEDTQGKGAASSTASQGSGA
B5: SEQ ID NO: 201: Auxenochlorella protothecoides carboxylate reductase (protein)
chain: MSTFPPLDAQCVVLPEKLNAPGPWTVRRNANFPEALIDSFDGEESHVRTCYDLLEHSVVKYPDSPYLGTRSVDARGAPGPYAWLSYSQVGEARTQIGSGLAHLGVRPGSNVGLFSTNCADWVLVDAALHAYACVSVPLYDTLGADVVQFVNNHAELAAVACSAATLPALLETLPASPTVAVVVVYAAPAGFRMPATPPGSAARLVSLDRLRALGMKHPSPHVPPSPADTALINYTSGTTGMPKGVVLTHANIVASIAGQIRSTAVLATIDATERHISYLPLAHIFERVTYMSVTHRGGAIGFFRGDVLTLLEDIQALRPTYFPSVPRLWNRIYDRIMAQVAASSPVKRRLFETAYAYKKRHMAAGDMTGGPWAGFWNRLVFNKIKQAVGGEVRMMVSGASALSPEVFEFMRIVFDCVVIEGYGMTETTSGATISIPGDPVIGHVGIPTPACEVKLADVPEMGYTNADLPRPRGEICVRGPLRFKEYYKDPENTRETIDEEGWLHTGDIGTWLPGERLKIIDRKKNIFKLSQGEYVAPEKIENIYVRSPYVAQVFVHGDSLRSCIVGVVVPDPEVLLPWAKQRGLPQDLATLCEDEQVKAMIQKSLSEEARVAKLKGFEQVADIVLTPVPFSVETGTMTPTFKLKRPQLREAYAPALEAMYARLPM
modifications: Auxenochlorella protothecoides
notes: Auxenochlorella protothecoides carboxylate reductase

assay: In vivo carboxylate reductase screening, substrate consumption by LC-MS, heptanedioate; format: cell-based, Escherichia coli; conditions: 541 enzymes screened in vivo
Protocol: To screen carboxylate reductases in vivo, […] T7- pUC expression vectors was co-transformed into T7 Express lysY/Iq with the phosphopantetheinyl transferase sfp from Bacillus subtilis on a T7-pCDF expression vector. Biological duplicates of the resulting strains were incubated in 0.5 mL of terrific broth containing either 1 g/L heptanedioate or 1 g/L monomethyl heptanedioate and supplemented with 0.4 mM IPTG in 96-well deep well plates. The plates were incubated for 30 h at 30° C. in a shaking incubator. The cells were then pelleted, and culture supernatants from the same strains in media containing either heptanedioate or monomethyl heptanedioate were combined. The combined supernatants were analyzed by LC-MS to determine the concentration of heptanedioate and monomethyl heptanedioate. Carboxylate reductase activity on heptanedioate or monomethyl heptanedioate was reflected by consumption of the respective substrate in the medium.

Molecule | substrate preference, heptanedioic acid to 7-oxoheptanoate
B1 | preferred acting upon heptanedioic acid to form 7-oxoheptanoate
B2 | preferred acting upon heptanedioic acid to form 7-oxoheptanoate
B3 | preferred acting upon heptanedioic acid to form 7-oxoheptanoate
B4 | preferred acting upon heptanedioic acid to form 7-oxoheptanoate
B5 | preferred acting upon heptanedioic acid to form 7-oxoheptanoate
